The DeepSol protein solubility set

Test: soluble on expression in E. coli; label from the status in PepcDB or PDB records

Row | Sequence | soluble on expression in E. coli
1 | MSLSKELAVTPKQSLEAVVSYFRSAHKEPDSAVRAIHHQPASEGEFSEMPAAVDSRLRAALAKRGIERLYTHQADAFDQIQAGKHVVIVTPTASGKTLCYNLPVLNLLLRDEGARAMYLFPTKALAEDQLHEFQGAVEEMGSEIRAFTYDGDTPQDARRAIRSRANVVLTNPDMLHSGILPHHTRWARYFENLRYIVIDELHYYRGVYGSHLANLLRRLSRICEFYNSKPQFICCSATIANPKELAEALTGEPFELVERNGAPRGEKFFIFYNPPVVNRQLGIRRSYIAETRRMALKFIENNLQTLVFANNRLATEVLVTYLKDACDRGPIPSETVRGYRGGYLPRERREIEQSLRAGKIRAVVATNALELGIDIGSLDAVVMAGYPGTIASSWQRAGRAGRRQSTSAAVMVASSAPLDQYIVEHPDYFFGRSPEHAYINPENLEIFLAHLKCAAFELPLRDDEKFGRHDLAEICRYLEEAGFLHHSAAAWHWTSDTYPADATSLRSVTSDNFVVVDITGEAKVIAEVSFPTALTTLHEKAIYLHEARQFHVERFDYDQRKAYVKSVDCDYYTDAIDYTQVKVLEEMEGEPQNGARRLHGDVRVTRQIVGFKKIKFYTMENVGAGKLNMPEQEMHTTAFWLHFPAAFLARFAEFTPTEKQSGISGLGNALRTVASLLLMCDPRDLGVALSEEIAGGLEAFEPNLYLYDNYPGGIGQSGPLYRLAPQLLRQTAGLLAACACEAGCPSCVGPSGETGERGKLVAARILAELMGTAEQITAEGHHHHHH | soluble
2 | GMSLIEIRKRTLIVETTYHENGPAPAQPLKLAASCAVIRNPYAGRYEPDLMPFMAELRSLGTLLATELVDTLGKDNIEVYSKAAIVGVDGEMEHGAVWHEAGGWAMRSVLGEPKAMVPAVKAVATAGYRMMVPVHYIHASYVRSHFNSIEIGIQDAPRPREILFALVMGTGARVHARLGGLTKEAVSVHDGQR | soluble
3 | MGSDKIHHHHHHMLYRQKVLLALIDVFGGTIDRLYLQKMLFLLSQRQEKPIYEFVPYYYGGFSFTAQWDINALFRKGFLAVDKHTVTLVQKHPQLFDSVTERDMHFLHELCQQYRYKARNDLLRELYEQYPYYAQQSKILDEILDDEAKRRIKQCQDEESRIVLFTIGYEGRSLENYLNTLIRNGIKILVDVRNNPVSMKPGFSKSQLRTYCENLGIGYIHIPEVGIVSELRKNLKSQEDYEELFAAYRREILPTTVSFQQRILNILLCYHRIALTCFEAESQRCHRSHLADAISKLPEFSYEVVHL | not soluble
4 | CHEASAIGMKDTIGVGKGTVIFDDFEEADAIFVIGQNPGTNHPRMLEPLREAVKRGAQVICLNPLKERGLERFQNPQMPIEMLSNGSEPTNTAYLRPALGGDMAVFRGIAKFLLQWEREALQNGGKAVFDREFIKQHTIGIDEYLAEVDATSWEHIAEQSGLDLSEIEMVASMYRRAERVIMCWAMGLTQHRHSVPTIKEVANVQMLRGNVGKPGAGLSPVRGHSNVQGDRTMGIDEKPSDLLLDRIESRFNFD | not soluble
5 | GPGSMSQLWVKRAKAEMTRHSRVLETINRVFPMPFEERRSRVGMTSYATYRWLRYFPVILVPVVVMGTLLETRDNPQEHVFTSLHLWLADHGVFRHDTVKALNPAFEDERRSIEWKANDRKWRFTGTDMPSEREIREFAAINIDHQSRRQL | soluble
6 | MSLAHRTVAMVLFNDVLLLDVTGPMDAFAIANRFLPAARQYRLLTLAEGQAVVRGSCGLKVVADRRLEDLPEAVDLLLVPGGPGAYDIALPGIERWLPKAVRQAKRFGAICTGVFLLGRAGLLNGYRCTTHWNYVERLAQAFPEAKVETEQIYVMDRCLITSGGITAGIDLALAVVAEDHGKALALEVAKVLLVARHRQGGQTPYGPLLAAVPRDDSPIARVQAYIVDHIEQAFTVQKMAELVAMSGRNFARTFLREVGITPLQYLQNARIDRTRKLLECGDLPMKVVAAQCGFGSDRHMRKVFFERIGMTPAQYRAQFGGEGHHHHHH | soluble
7 | MNLEKLEVSHDADSLCVVIEISKHSNIKYELDKESGALMVDRVLYGAQNYPANYGFVPNTLGSDGDPVDALVLSDVAFQAGSVVKARLVGVLNMEDESGMDEKLIALPIDKIDPTHSYVKDIDDLSKHTLDKIKHFFETYKDLEPNKWVKVKGFENKESAIKVLEKAIKAYQG | soluble
8 | MHKVSATLLIIDDDEVVRESLAAYLEDSNFKVLQALNGLQGLQIFESEQPDLVICDLRMPQIDGLELIRRIRQTASETPIIVLSGAGVMSDAVEALRLGAADYLIKPLEDLAVLEHSVRRALDRAYLRVENQRYRDKLEAANRELQASLNLLQEDQNAGRQVQMNMLPVTPWSIEGLEFSHRIIPSLYLSGDFVDYFRVDERRVAFYLADVSGHGASSAFVTVLLKFMTTRLLYESRRNGTLPEFKPSEVLAHINRGLINTKLGKHVTMLGGVIDLEKNSLTYSIGGHLPLPVLFVEGQAGYLEGRGLPVGLFDDATYDDRVMELPPSFSLSLFSDGILDVLPGATLKEKEASLPEQVAAAGGTLDGLRQVFGLANLAEMPDDIALLVLSRNLA | soluble
9 | SAATMKKAAAEDVNVTFEDQQKINKFARNTSRITELKEEIEVKKKQLQNLEDACDDIMLADDDCLMIPYQIGDVFISHSQEETQEMLEEAKKNLQEEIDALESRVESIQRVLADLKVQLYAKFGSNINLEADES | soluble
10 | SNAMKQLTILGSTGSIGNSTLSVVRANPELFKVTALVAGRNVREMAQQCLEFSPRYAAMSDEHSAKSLRLLLAEQGSDTEVYSGETAACELAALDDVDQVMAAIVGIAGLPSTLAAIRAGKQVLLANKESLITCGKLFMDEVKRSRAQLLPIDSEHNAIFQSLPERIQRQLGYSSLNENGVSRIILTGSGGPFRETPLSQFSDVTPDQACAHPNWSMGRKISVDSATMMNKGLEYIEARWLFNASAEQIEVVLHPQSVIHSMVRYHDGSILAQMGTPDMRTPIAHAMAYPMRVSSGVAPLDFCKVGALTFTTPDYQRYPCLKLAIDACNAGQAATTALNAANEISVMAFLDSKIRFTDIEVINRTVVEGLLLSEPTSVEEVLVIDRKARDVAAQVIAKLNN | soluble
11 | MSNDLTQITQRSLDEQVIGNLNRLQEQGLEMPPGYSPQNALKSAFFELTNNSGGNLLQLAANNPETKTSISNALLDMVIQGLSPAKKQCYFIKYGNKVQLMRSYFGTMAVLDRVTGGADITPVVVREGDVFEIAMDGPDLVVAKHETAFENLDNDIKAAYVVIKLANGKEVTTVMTKKQIDKSWSKAKTKNVQNDFPEEMAKRTVINRAAKYLINTSNDNDLFVQAAKDTLENEFERKDVTPEREEQAAVLEEKLFSNNIKAVDQENENERITRVADVPEQPDIEQAKPIEKDNLTKVADQILEEPVQETLDVMAGYETNQKESEADVSTIEEDDYPF | not soluble
12 | MNCIIAQSGGPTSVINASVYGLVKANKKLNLYENVYGGLNGIEGILNKKIINLSDLDELQLERFKNSPASGLGSCRYKLKPLSESEDEYLKLLDILNSLNIKAFFYVGGNDSMDTTAKLNAFAKAKNIDIKFFGIPKTIDNDLMHTDHTPGFGSAAKFISTAVLETYLDSKVYTNNGIFIIETMGRDTGWLAASGALATINGNKCADLVYLPERAFSVQSFLTDVARIFKEKKHVYIVASEGLKDENGKFLTETAPNDDSFGHAQLGGVGAYLKNLIIQASITHRVKSLELNTLQRCSMHASSKIDVNEAVMVGQAALEASINSEGGYMVAIRRDSSFPYKSSTFLIEADKIANNIKYFPSEWINEEGNNITEEGLLYLKPLISDFEDRDSLPLYHSFVLLEHHHHHH | not soluble
13 | MKQKEMIVMSILVKSVSFDDYRNTQLNEKCANFLQSAEMAKLQESQDHIEKVEALVFERDGLRVAQAIVVYKKSFRVFKKALLLHGPLLDYHSSCWFDREILEALILYLRKKNIATLSIHPYLTNLIRNEKLENIEVDKARDVLEVFETLGFEHSLDSEQSLVVNQMFVKSIESFASSDEILAAFSPSLKRDLKKFTALNVKTEELDEHQLDQFYDILSRTAERKGFSVHPLVYFQNLKKYFGKSAKFMLAYLDCPAYLAYLDENIQSFEAKIQDLKEGPQKKRTKGQIADAEDQLRSYYKRLEQFKSYQIKTDKLPLSAYLFMDYGPEIVSFYGGNDEAYLNFGGAVLLHWEMLKYAKSKSKKHFNFYGTIETEAASSGKGNFNFKRQFGGQLETLVGSFDKTLNPFYDILKKTLGKD | not soluble
14 | SLFQNFINKFVGEKQMDLIKDCNTFLAFVTDKEQTKKKLYKNNMCKNRFCPMCAWRRARKDALGLSLMMQYIKQEEKKEFIFLTLTTPNVKAEELEDEIKKYNLSFGKLVKRKNVKAMMKGYVRKLEITYNKQRDDFNPHFHVLIAVNKSYFKDSKVYISQKEWLEMWRDVTGMPEITQVHVQKIKQNNNKELYEMAKYSGKDSDYLINQKIFDAYYKSLKGKQILVYSGLFKEARKKLKNGELDYLKEIDPTEYLYQIYYIWNQKEYLASELHELTEEEKRKINHQTINEIEEEK | soluble
15 | GVEITEGVTVTAKGNTEGNTADLAIDGDLSTYWESSNDYKWIEVDLGGIYELSKIEIFNKDEAVYKYNIYASEDGENFNKIAYKNNDNVSDSNGNMHTIDNVRAGKIRIDVVQNSNSDRVNIAEINVFGKNTGESLPEVKKIATSNFSETPWATEYEKFNSDSAYANEKTLNEIKNLVGRVIGREFKDKFIFEIRDQLNGNDVFEVSDSGDGKVLIKGNNGVSLASGFNYYLKNYCNVSYNPIMGSNLKMPETMPSVGERVVIDTPYEHRYALNFCTYSYTMSFWDWDQYEEFLDWCAMNGVNLVLDIIGQEEVLRRTLNEFGYSDEEVKEFISGPAYFAWFYMQNMTGFGGPLPNDWFEQRAELGRKMHDRMQSFGINPVLQGYSGMVPRDFKEKNQEAQTISQGGWCGFDRPDMLKTYVNEGEADYFQKVADVFYEKQKEVFGDVTNFYGVDPFHEGGNTGDLDNGKIYEIIQNKMIEHDNDAVWVIQNWQGNPSNNKLEGLTKKDQAMVLDLFSEVSPDWNRLEERDLPWIWNMLHNFGGRMGMDAAPEKLATEIPKALANSEHMVGIGITPEAINTNPLAYELLFDMAWTRDQINFRTWTEDYIERRYGKTNKEILEAWNIILDTAYKKRNDYYQGAAESIINARPGFGIKSASTWGHSKIVYDKSEFEKAIEIFAKNYDEFKDSDAFLYDFADILKQLLANSAQEYYEVMCNAYNNGNGEKFKFVSGKFLELIKLQERVLSTRPEFLIGNWIEDARTMLKDSDDWTKDLFEFNARALVTTWGSRNNADGGGLKDYSNRQWSGLTEDYYYARWEKWINGLQAELDGGAKAPNIDWFKMEYDWVNKKSDTDKLYPTEASNENLGELAKIAMESYSVTNMDKILGENES | soluble
16 | ATDKRLLGNTAIIGQSGSGKTVLLGFLLAQAQKFKPTTVVFDKDRGMEIAIRAMGGRYLTFKPGRQSGFNPFQLPPTQDNLTFLKQFVKKLAEASSEITHRDEEEINQAVMSIMSSNINPSLRRLSFLLQFLPNPHLNDYNSHPSVHTRLIKWCEGGDYGWLFDNPTDALDLSTHQIYGFDITEFLDNPETRTPVMMYLLYRTEGMISGQRFMYIFDEFWKPLQDPYFEDLAKNKQKTIRKQNGIFVFATQEPTDALESNIAKTLIQQCATYIFLA | not soluble
17 | MAHHHHHHMDQFIRSRTDWKERVVFRLVWITASRWFGISGLHSQQFYTGAGRDPNLGLARGAEDGEGGSPPRLSVRQDTRAGGCVRHYKVMQDTSTQRKAHESYDCPLGASSGLLECHGAFHKTRCVEARCSNRGGVQFGPTRDPAVGEARRPVRPSPEYCLIFGEIHHNADPGVVASRIDVKRETAEGQ | not soluble
18 | MNIRQAKTSDAAAIAPLFNQYREFYRQASDLQGAEAFLKARLENHESVILIAEENGEFIGFTQLYPTFSSVSMKRIYILNDLFVVPHARTKGAGGRLLSAAKDYAGQNGAKCLTLQTEHHNRKARSLYEQNGYEEDTGFVHYCLNVPAK | soluble
19 | MADAIQTAPRFTGKNRDPQLFTVTNHYNEAGTGPLEAAICRHNPLHVVSAALRHQHEESQCPDRKWNPSEKIVKYKDMQ | not soluble
